Assay results: PMC6683420 (BMC Molecular and Cell Biology, 2019)
Substitutions are numbered along the chain they refer to.

B1: ABBV-323 (ravagalimab), human IgG1/κ anti-CD40 antagonist mAb (antibody, V domains shown)
VH: EVQLVESGGGLVKPGGSLRLSCAASGFTFSDYGMNWVRQAPGKGLEWIAYISSGRGNIYYADTVKGRFTISRDNAKNSLYLQMNSLRAEDTAVYYCARSWGYFDVWGQGTTVTVSS
VL: DIVMTQSPDSLAVSLGERATINCKSSQSLLNRGNQKNYLTWFQQKPGQPPKLLIYWASTRESGVPDRFSGSGSGTDFTLTISSLQAEDVAVYYCQNDYTYPLTFGQGTKLEIK
B2: FAB516, anti-CD40 agonist antibody variant of ABBV-323 (antibody, V domains shown)
VH: B1 VH with I48V, A49S, G56S
VL: B1 VL with R32L

How the values were obtained:
human CD40 [1] = target: T1, human CD40 (human, UniProt P25942); assay: cell-based or functional assay
human CD40 [2] = target: T1, human CD40; assay: cell-based or functional assay; remark: listed apart in the source

T1 sequence (P25942 21-277): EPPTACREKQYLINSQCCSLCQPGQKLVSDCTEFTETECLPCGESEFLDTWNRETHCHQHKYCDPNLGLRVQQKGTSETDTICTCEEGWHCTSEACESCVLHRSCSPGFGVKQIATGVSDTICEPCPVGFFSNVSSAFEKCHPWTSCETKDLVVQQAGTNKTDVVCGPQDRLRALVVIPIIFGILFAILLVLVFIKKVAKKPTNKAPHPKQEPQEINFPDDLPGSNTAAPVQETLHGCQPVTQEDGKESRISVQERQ

Row | Binder | EC50 of antagonist activity in the CD40-dependent NF-kB SEAP reporter assay (HEK-293 transfected with human CD40, stimulated with recombinant CD40L); blocks m8 with m7 (human CD40 [1]) [nM] | EC50 of inhibition of CD86 upregulation on primary human B cells stimulated with CD40L-expressing Jurkat cells; blocks m8 with m7 (human CD40 [1]) [nM] | Antagonist: Jurkat/ Reporter assay IC50 nM; blocks m8 with m7 (human CD40 [2]) [nM] | Agonist: huCD40 reporter assay IC50 (human CD40 [2]) [nM]
1 | B1 | 3.7 | 0.6 | 3.1 | 
2 | B2 |  |  |  | 157
